Measured values: publication PMC2812487

Legend:
[1] = molecular target: HLA-Cw6 on 721.221 cells; assay: flow cytometry on cells (Ig-fusion protein staining)
[2] = molecular target: HLA-Cw3 on 721.221 cells; assay: as above

- response [1]: 1.05 MFI
- response [2]: 114 MFI
Substance: KIR2DS2-Ig (from UniProt P43631) KYK/KFK
